Consider 17 sequences from a protein production outcome set (Wang et al. 2014).

This data set in a line: label from the status in PepcDB records.

As for “MIDFNDIPQPEAQDRQARREEIRAALLARLESVLFALLPAGKKRGGKFLIGDVLGSPGDSLEVVLDGEKAGLWTDRATGDGGDIFGLIAAHLGADVHADFPRVLDVAADLVGRAHPAPPRKARSAPPVDGLGPATAKWDYFDPAGKLIAVVYRYDPPGRKKEFRPWDARRRKMAPPEPRPLYNQPGLVAADTVVLVEGEKCAQALIDIGVAATTAMHGANAPVDKTDWSPLAGKAVLIWPDRDKPGWEYAMAAAQAALAVGAMSCDVLLPPDDRSEGWDAADAVAEGFDVAGFLAFGPRMSIKPASVTPTQEPSVWATDDALALAFTSRYAEDWRYCAAWGKWLVWDGRRWQADETLLVHHLIRAICREAALKADSHRLAAKLAASSTVGGVERLARTDRRHASTSEEWDADLFALNTPSGIVDLKTGRIKPHDRRERMTKLATATPHGDCARWRAFLEDITGGDTALQAYLQRMVGYCLTGATSAHALFFLYGTGANGKSVFVNTLATILGDYATSAPMDTFMEARGDRHPTDLAGLRGARFVSSIETEQGRRWNESKVKAITGGDKVSARFMRQDFFEYLPQFKLVIAGNHKPAIRNVDEAMKRRLHLIPFTVTIPPEKRDGQLTEKLLAERDGILAWAVEGCLAWQRDGLNPPASVVSATEEYFDEEDAIGDFLDEEAQRFEQARVAVADVFQRWQEWATRRGEYVGTSRWLAQQLANRGFGRARLHGGVKGLAGLSLKPRDYGTRLPYRDD”, the protein production entry was “failed”.

On to “MIDGNSIIVSSPEVAFPIAVRYAWADNPICNLYNGVNLPASPFRTDDWQGILMVINRYSCFDLPSEIDVTHKKITMNKLIYLVIFSFLSTSIYAQMKDLVQYVNTLQGTDSHFGLSYGNTYPTTGMPYAMHTWSAQTGKNGEGWKYQYAVDNIRGFCQSHQCSPWMSDYAVYSFMPMVGKLVVNQEMRATKFSHDNEIAKPHYYKVMLDNGITTEMAPTTRGVHLRFSYPSTEDAYLVIDGYTDMSEIKIDPAKRQISGWVNNQRFVNNSKTFRSYFVVQFDKAFEDYGMWENQKDEIYPKKLEGEGKGYGAYIKFKKGSKVQAKAASSYISAEQAVITLNDELGKDKNLEATKIRGHKTWNELLNRIQVEGGTDEQMKTFYSCLFRANLFSRKFYERKANGEPYYYSPYDGKVYDGYMYTDNGFWDTFRSQFPLTNILHPTMQGRYMNALLAAQEQCGWLPSWSAPGETGGMLGNHSISLLADAWAKGIRTFDPEKALKAYAHEAMNKGPWGGANGRGFWKEYFELGYVPYPESMGSSAQTMEYAYDDFCGYQLAKMTGNKHYQEVFARQMYNYKNVFDPSIGFMRGKGVDGKWQEPFDPLEWGGPFCEGNAWHYTWSVFHDVEGLIDLFGSDQRFTTKMDSVFTLPSTIKPGTYGGVIHEMKEMELSGMGQYAHGNQPIQHMPYLYSYAGQPWKTQYWVRQIVERLYNSTERGYPGDEDQGGMSSWYILSSLGIYAVCPGTDEYVIGSPLFKKATITMENGNKFVIEANNNSKENLYIQSATLNGRVLDKNFIRYDDIADGGIIRFEMGSQPNKERCTSKYAAPFSLSKE”, for which the protein production entry is listed as “failed”.

For the sequence “MIDHRPTSWSRLCTALTSGASCTIGGQAVMEGVMMRNGDRLAIAMRRPDGEIVAESRPWFSLTRSAWLKRPFVRGFPILVETLVNGIKALNRSAEQAVEGETGEELKPWQLAATLAVSVAMALGLFVVVPHLFSIGMKLLGLGGDVEGLSFHMWDGFFKFAVFIGYIVAISFVPDIRRVFQYHGAEHKVIRAFEAAGDVTPDTAMHHSRLHPRCGTTFLLFVLSISIILHAVLVPLLMLVWTPSGAFAKHGVTVLFKLLLMIPISALAYETIRYAARLGEGLTGTLLRAPGMLLQKLTTGEPDREQLEVAIVALREALGDDAPQSVRAPAYRHLE”, the protein production entry was “failed”.

With “MIDKREVLAPNRRSRQREEIVAEEKRYEVYFQPLLSGVEVKKSNEIKIVLPQQEYNRIEQGAKGTLRLQGTRYISFVPNSVAKLEHHHHHH”, the protein production result is reported as “not failed”.

Consider “MIDLAVLPIYLTAVIALLLLPGPDMLLIASSSMSYGRKVGLFASLGNATSGLILTLLAAMGVSTLIAMSPVALKVLHLLGGAYLLKMGWDCLRAEASSAPELDQKNKMASTYYQRALMSNLLNPKALVFFVMFLPQFVSSNITASSGEQMLALGLLLNVLGLLFNLLLVALAGTLGKGLLENEKFRTYQHKLMGLVFVILALWMLSSFVL”, for which the protein production result was “failed”.

Turning to “MIDMEQDNRNQINGENISNASAGGTQPEQNTQSSQNMHPEQTGQGTQQDSLYHYSYMNNKGDARFDRPAGETSQQRMGAQTQNMRETANVQGGTQNTAYSGFQRNVNGMEAWYDSQRMNAGYQNPENNVGGYGQGSQSVPHKTETSHKHEKQPKPKKNSGKKSGVGKKVAGVVAAAVVFGLVAGVVFQGVRYGSDKMLNKNSATTEASADATTENNAPQLKQASSDATNTVYDVATVAQKVMPSIVSITGTYVTTYDYWFNSYQQESTGAGSGIIIGKDDQYLYLATNYHVVQNAKSLSVTFVNDKSADATVKGYVENNDIAVVTVKLADISDDTLNEIKEIQVGSSDDLSVGDPCVAIGNALGYGQSVTVGYISALNREISASDETVKVLQTDAAINPGNSGGALVNMQGELIGINTAKYSDTSVEGMGYALPISDIQDIINDLIAGKKVASDGTASGQAYLGISAQTITSQYSQLLNMPEGVYISSVEQGSAAEECGLQSGDIICSLDGEDIADMDTFHDRIVACKPGDKVTIVYYRNNNGNYEKQTTTATLQEKQ”, the protein production entry is reported as “failed”.

For the sequence “MIDPRPVGYILGLLVATLGALMLVPMALDLAAGDRHWLSFAETATITTVAGSMLALACANGRGQGTGLSLQQSFLLTTGAWVLLPVFGALPFMMGRPDASFTDAVFEAMSGFTTTGTTVFVGLDALPLGTNLWRGMLQWLGGLGIVIVAMIFLPVMKVGGMQFFRSEGFDTLGKILPRALDISTALIQIYLVLTMACVMTFLALGIPLFEAVVHALTTVSTGGFSSSDRSFGLFQGPAEYACAFFMVLASLPFVRFVQLAQGTFLPLWRDPQVRAYLRWNGYAIGLIVAYEVVTRNAPVLPTLRETTFNVISTFSGTGFSSVDLGLWGTFPFVLLIVVGLIGGCTSSTGCSVKVFRYLILLEAIKVQIRRLQSPSAVIFVDYEGRRVGEDVINSVILFFTMFILSFGVLAVLLSLTGLQTKTAITAAWTAIANVGPAFGPEVSATGAVDRFPAVAKWLMIGGMLVGRLELLSVFVLLTPRFWRS”, the protein production result is listed as “failed”.

With “MIDRPLEGKVAFITGAARGLGRAHAVRLAADGANIIAVDICEQIASVPYPLSTADDLAATVELVEDAGGGIVARQGDVRDRASLSVALQAGLDEFGRLDIVVANAGIAMMQAGDDGWRDVIDVNLTGVFHTVQVAIPTLIEQGTGGSIVLISSAAGLVGIGSSDPGSLGYAAAKHGVVGLMRAYANHLAPQNIRVNSVHPCGVDTPMINNEFFQQWLTTADMDAPHNLGNALPVELVQPTDIANAVAWLASEEARYVTGVTLPVDAGFVNKR”, the protein production entry is on record as “not failed”.

Turning to “MIDVIGTDAGAPASLPAAQQALIRAAEQIAAPRRLQPALETWLESPVPLIDSDDPRHLVEVLSALSAQTNAVVLASGDPLWFGIGRILAERLGPERLRFHPAPTSLQLAFARIGRPWQDARWVSLHGRDPEPLARELQTRPRALAVLTDPGRGGADAVRRCLRSSGLEASYQLWLGENLGHADERMRLIPADAPLPEPLQPLLVALLIAEEPSIPNSRALPLFGLEDGLYLQHPDHPGLMTKREARIQLLADLDLPDQGVLWDLGAGTGSIGLEALRLRPQLRLLAVERRAGGAALIQANAKRLEVMPSAVVETDALSLLSADLPDGLDQPDRVLLGGGGPHREALLKAVLQRLRPSGIVVIPLATLEAVATLRPLMEQSGLTVQLNQLQAWRGQPLSDGTRLAPMNPILSLKGT”, the protein production entry is given as “failed”.

“MIDVPFLKNVTLKKENIPSFSAYPYCLPAIRTLQSLAFHPNVTFIIGENGTGKSTLLEGIAIALGFNAEGGTKNFRFSTNDSHSSLHEYLRISKSFNTPSDGFFLRAESFYNVASYIDEIDADLEARGNPVIDSYGGISLHEQSHGESFFSLFMNRFSGQGLYILDEPEAALSPMRQLSMLIRMHELAEQGSQFVIATHSPILMAYPESTIYSLTQEGIQESALEDTEHYQTTKLFFENRDRLFHHLFNSLEHHHHHH”: the protein production result is listed as “not failed”.

As to “MIDWPLAELLPHAGDMILIDQVLAFDEEQIRTRLEVRPGGLFNRPDGSLPAWVGVELMAQSVAAYAGCRARQQGLPVELGFLLGTRKFECNVEHFPLGSTLEIHALRSLEDDNGMGVFECHLSGPGITASARLNVFRPPQAADYLHETPASSTGTPS”, the protein production entry is “failed”.

Turning to “MIEIKNVNKVFYQGSKEILALKDINLHIAKGTIFGVIGSSGAGKSTLIRCVNMLEAPSSGSIIVDGVDLTTLSKKQLVETRRNIGMIFQHFNLLSSRTVFDNVALPLELAGKDKSQITTKVTELLKLVGLADKHESYPSNLSGGQKQRVAIARALASDPSVLLCDEATSALDPATTQSILELLKEINRKLNITILLITHEMEVVKSICHEVAIIGGGELVEKGTVGDIFAHPKTELAHEFIRSTLDLSIPEDYQARLQPNRVEGSYPLVRMEFTGATVDAPLMSQISRKYNIDVSILSSDLDYAGGVKFGMMVAELFGNEQDDSAAIEYLREHNVKVEVLGYVL”, the protein production result is “not failed”.

“MIEKKRIEIFPKHMGFFPYMWFVYLLFPIYHLAQASGWKLVIGSGMLIIFIVTYRQLYFVQRTFVFWACIQMVLIFLFALFYNPFMIFFGFFTASAMGFAPNKKVFRVLLCSLVIMLGAFLFVNMNQLTTTSLVNIVPMFILMILTPFGMRNFNQKKMLRNQLDQANEQIKDLVKREERQRIARDLHDTLGHTLSLITLKSQLVEKLIVKNPERASAEAKEITQTSRTALKQLRELISDMRMITVEEELEQIKAILQAANIELEVRQEARSSSLSPIEQNIVGMCLREAVTNVVKHSKATRCAVSVLESQGELILKVEDNGIGLTDQNHDGNGIRGMKERIALIDGFVELGTINPGTLLTVKVPVVIRTGKDEVRA”: the protein production result is reported as “failed”.

Turning to “MIELQLELFPGHIAGLLLVELSKPVEDFASIFIQGTWECALLDAGVVFHKSQLLTAVNVAFQRFEAGRLKTHSLHNEVMLALSAKLSIRDGLAAVRFSWEKTRCLVVAVDPPASFPQAAESTSNALAAKVRHFPEGANELFNELLVHVDKPSIQNLYGTDIDPHWICTKIATVEYVRQLR”, the protein production entry is “failed”.

Consider “MIEMLGIKIPLRKTTILPVLSFTLSSYFLTNFIFYLQYTDYTGLVEFLLIGAPFIGRAITPITYPFLMSRINIERITYLSLGNMAILDILEFFMGTDTLALILLRVATGILFGLATSAAVELATQSRSKIIMGMTMGGWALGWILSALMSFLMGKMVLITSSFSLVFFLLIKRSNIDKKLFSNSGSISIAFSWKALLIFLLGFEPAYILQLIPSLLGENNAIEETIIAYSISFIAYIILPSIGNIRISSLLTSLMIGILGFTSFITLKAWMFIPFTVLGLGLNSLLPIIIKLMKVEVTKIGPSMNLASLSGFLIPSLVSIGDIEINSAILTLISSISLGAIVYKNLKITA”, for which the protein production entry is listed as “failed”.

As for “MIEQELTYQDLRIPSSEIYEAMGYKDSIPDQMVIDETNTLLKRVIPLLRPRFAFFFMEGTLDIEKETLSVQSIHPPTVNPIQDTIPTRSPEQNTFSTQSKSTVFSVGKTIARQLRGSEAFVFFAATAGTEFEVFQHTLQQEEDMVKIYIADSLGSIIAEKTADCMEVALAEYIREKNWKHTNRYSPGYCGWHVSEQQKLFPLFPIAAPCGIRLTDSSLMVPIKSVSGVIGTGTNVRKLEYTCGLCTYENCYRKRKHR”, the protein production result is recorded as “not failed”.

Regarding “MIESAVGKAAYSTAAFLIKSLPVVVIAIYAVSYSIKKGYLERFALFLQPALRKFGVSEFAVISFATCFVSPTASYSMLSQAWREKKVDDREVIAISFLNSFPSVFSHLYAYFIPFVIPVLGFAGVVYTAVRFAVAAIKSLIGLLLSRSRKNSDTSAPELSPLSVSQNVVRIGAVMAATYFIVSLLSQLGVFDLMAESLKFLPFRAEAVTIAIVEFFNIRSAVVTAASFIDAGLEWKWAVIGLILGNVISFSTRSVKHSLPMHLSLFGGFGVKIVLLNSIVTLILDIFFVVLLLLV”, the protein production result is recorded as “failed”.
